Measurements taken from the DeepSol protein solubility set.

Test: soluble on expression in E. coli; label from the status in PepcDB or PDB records

| Sequence | soluble on expression in E. coli |
| --- | --- |
| MGSDKIHHHHHHAADGEGRGELSPKIKAGDLESKLIVPKNNGLKITGTFLDEISHDIPHQNWGEKEWDLDFQHMKRIGIDTVIMIRSGYRKFMTYPSPYLLKKGCYMPSVDLVDMYLRLAEKYNMKFYFGLYDSGRYWDTGDLSWEIEDNKYVIDEVWKMYGEKYKSFGGWYISGEISRATKGAIDAFRAMGKQCKDISNGLPTFISPWIDGKKAIMGTGKLTREDAVSVQQHEKEWNEIFDGIHEVVDACAFQDGHIDYDELDAFFTVNKKLADKYGMQCWTNAESFDRDMPIRFLPIKFDKLRMKLEAAKRAGYDKAITFEFSHFMSPQSAYLQAGHLYDRYREYFEIK | not soluble |
| MTDDSAVESKQKKSKIRKGHWIPVVAGFLRKDGKILVGQRPENNSLAGQWEFPGGKIENGETPEEALARELNEELGIEAEVGELKLACTHSYGDVGILILFYEILYWKGEPRAKHHMMLEWIHPEELKHRNIPEANRKILHKIYKALGLEWRK | soluble |
| MAAMPKPAAFWNDRFANEEYVYGEAPNRFVASAARTWLPEAGEVLLLGAGEGRNAVHLAREGHTVTAVDYAVEGLRKTERLATEAGVEVEAIQADVREWKPARAWDAVVVTFLHLPADERPGLYRLVQRCLRPGGRLVAEWFRPEQRTDGYTSGGPPDPAMMVTADELRGHFAEAGIDHLEAAEPTLDEGMHRGPAATVRLVWCRPSTSLEHHHHHH | soluble |
| AACKFLRRKCTSDCVFAPYFPPEEPTKFANVHRIFGASNVSKILHEVAPHQREDAVNSLAYEAEARLKDPVYGCVGAISVLQRQVLRLQRELEETNADLMRYAGCLGGETTSAYGGRRG | not soluble |
| GAQVSTQKTGAHESIIHYTNINYYKDAASNSANRQDFTQDPGKFTEPVKDIMVKSLPALN | soluble |
| MINETKYMRQQITNLIQIIDTIKYNTLMTDWNIQTHIYKFNQIVTNELNKFKGFETSYIINENQVSYYEIITLLNKRPLRQVDYGNKIQYLNFYHTELSNALFAIKFAHLEHHHHHH | not soluble |
| MGSDKIHHHHHHMTLRERRQKHKAQFRQEILDASRELFSQIGYERFSMRKLAAKIEHSPTTIYLYFRDKDDLLYSLCEELFAKLFQSYQDISRGENDPRQVLRLCLLRYIEFGLANPGHYKVAFFTSPVVYGSPTEFLQKDSMGRRTYFHILRTVEETMAAGMLRPMDADLLAQTVWVAAHGVVTSRIYSADFPMVDAVLQAETLVDGLLAGFSVKNFFGTNIYTVN | not soluble |
| MGHHHHHHSHMEKCSVGGLELTEQTPALLGNMAMATSLMDIGDSFGHPACPLVSRSRNSPVEDDDDDDDVVFIESIQPPSISAPAIADQRNFIFASSKNEKPQGNYSVIPPSSRDLASQKGNISETIVIDDEEDIETNGGAEKKSSCFIEWGLPGTKNKTNDLDFSTSSLSRSKTKTGVRPFNPGRMNVAGDLFQNGEFATHHSPEMHLQRRLMSFFQ | soluble |
| SWMANQFFLLEEYTGSDYQYVGKLHSDQDRGDGSLKYILSGDGAGDLFIINENTGDIQATKRLDREEKPVYILRAQAVNRRTGRPVEPESEFIIKIHDINDNEPIFTKDVYTATVPEMADVGTFVVQVTATDADDPTYGNSAKVVYSILQGQPYFSVESETGIIKTALLNMDRENREQYQVVIQAKDMGGQMGGLSGTTTVNITLTD | soluble |
| MGSDKIHHHHHHMRNSLLVFTLDCQVKIDSKTVDCQTNIDSFLTPNSNLIIVEVEEIKRILLDQESFLNDKLRKERIITRHYNYSITYNNAYLITGPRRAGKSIFTVQLTKGKEILRVDFDDERLSGIKANELNKFLEAGYQIKKKIEVIILDEIQNVKGWELFVSRIREIYPVIVTGSNARLMSSEMATYLTGRHMDFLVFPFSFKEYLRYKDVKVEETTRGIARLKEELRNYLQQGGFPETFKFDKNEYLRNLYSDIITRDVIIRCKTRKDVKGLADFLLENIGKEVSTRRVGNAFNLSHQSVENYFYCLSNAYLFLFVKRFTGKSLERYTLPRKVYVIDTGLFNTYKRLQMGKMIENLVFLELYKRYGQEVYYYSNGNAEVDFIIKDKFAIQVTYDEGGIDDREYKGLVRFSERFKDYKLIIITWDREGKEIRNGKEITLIPLWKFLVKERFAGEMIGKES | not soluble |
| LNKTVKHMWPFICQFIEKLFRETIEPAVRGANTHLSTFSFTKVDVGQQPLRINGVKVYTENVDKRQIILDLQISFVGNCEIDLEIKRYFCRAGVKSIQIHGTMRVILEPLIGDMPLVGALSIFFLRKPLLEINWTGLTNLLDVPGLNGLSDTIILDIISNYLVLPNRITVPLVSEVQIAQLRFPVPKGVLRIHFIEAQDLQGKDTYLKGLVKGKSDPYGIIRVGNQIFQSRVIKENLSPKWNEVYEALVYEHPGQELEIELFDEDPDKDDFLGSLMIDLIEVEKERLLDEWFTLDEVPKGKLHLRLEWLTLMPNASNLDKVLTDIKADKDQANDGLSSALLILYLDSARNLPSGKKISSNPNPVVQMSVGHKAQESKIRYKTNEPVWEENFTFFIHNPKRQDLEVEVRDEQHQCSLGNLKVPLSQLLTSEDMTVSQRFQLSNSGPNSTIKMKIALRVLHLEKRERPPDHQHSAQVKRPSVSKEGRKTSIKSHMSGSPGPGGSNTAPSTPVIGGSDKPGMEEKAQPPEAGPQGLHDLGRSSSSLLASPGHISVKEPTPSIASDISLPIATQELRQRLRQLENGTTLGQSPLGQIQLTIRHSSQRNKLIVVVHACRNLIAFSEDGSDPYVRMYLLPDKRRSGRRKTHVSKKTLNPVFDQSFDFSVSLPEVQRRTLDVAVKNSGGFLSKDKGLLGKVLVALASEELAKGWTQWYDLTEDGTRPQAMT | soluble |
| MSLKQLPKREELPENLTWDLTKIFSSDQEFDEKYLELSEELKQSEKHKGTLDQGASQFLNAIEFVLRVYRQTEVIYVYAHLKNDQDTGNTDYQALYARASSLFSKVSEAVSWFEPEILQLSDDQIWQYFKEEPKLEVYRHYIQQIVDNRAHVLSAEQESLLAGAGEIFDASSDTFAVLNNADLVFPTIEGENGEIVQLSHGVYGQLLESTDRRVREAAFKGLYSVYEQFRNTFASTLGTHIKGHNFKAKVRNYSSAREASLSNNHIPESVYDTLVDVVNKHLPLLHRYMELRKRLLEVEKLHMYDLYTPVLGEAPITFTYEEAKEKALEALKPMGEEYMAIVEKAFSERWIDVVENKGKRSGAYSSGSYDTNPYILLNWHDTLDQLFTLVHEMGHSVHSYFTRSNQPYVYGDYSIFLAEIASTTNENILTEYLLETEKDPRVRAYVLNHYLDGFKGTVFRQTQFAEFEHFMHTEDEKGVPLTSEYLSDSYGKLNAKYYGPAVEEDPEIKFEWSRIPHFYYNYYVFQYSTGFSAASALAKKILNQEPEALENYLAYLKAGNSDYPVEVMKKAGVDMTQAAYIEDAMSMFEQRLNELEELIDREGHHHHHH | soluble |
| MEKVMIELEEQVNQLINQILLKAENQYELLIGQCRSKVKLTNTQEHILMLLSEGQKTNSELAKALNVSQAAVTKAVKTLVKEGMLEGKKDKDDGRVTYFVLTQEAQPIAQEHKEHHQETLGVYRSVLDQFDHQERQVIGRFLIKLAEKIEE | not soluble |
| ISEFGSSRMLTTLIYRSQVHPDRPPVDLDALVHRASSKNLPLGITGILLFNGLQFFQVLEGTEEALESLFSEIQSDPRHRDVVELMRDYSAYRRFHGTGMRILDLRLFETDGALEEILRFSTFGVTEPVNDRMFRLLSAFIADGGRYCLPEPLQPSRWMMMPASGTAAPQHLPGQPCQFALQAIVEPAKKRVSSFEALIRSPTGGSPVEMFAAIAAEDRYRFDLESKAYAFALAGQLPLGKHQLAINLLPGSLYHHPDAVGWLMDSLLAAGLRPDQVLIEVTETEVITCFDQFRKVLKALRVAGMKLAIDDFGAGYSGLSLLTRFQPDKIKVDAELVRDIHISGTKQAIVASVVRCCEDLGITVVAEGVETLEEWCWLQSVGIRLFQGFLFSRPCLNGIGEICWPVARQAMDL | soluble |
| MSGIGKRELIELYDKLLQFYGKQNWWPVDLEYHKTHGSDPREEVIIGAILTQNTSWKNVEKALENLKREKALNLKAIKEIPTEKLMELIKPAGFYRQKSLYLKEFANKFPSISHLKNVKREDLLKVKGIGKETADAILLYALDRLEFVVDAYTKRLLERLWNIKGSYEEIKRLFEKNLPKDLEIYREFHALIDIHAKEFCKKKPLCEECPLREKCIKSCF | soluble |
